Experimental data published in patent publication US10323078B2, “Isolated peptides and fragments thereof from fibrinogen for use as drugs, particularly in skin inflammatory diseases” (Universite Paris Descartes, priority 2015, dated 2019).

What was measured:
NHDK cells = assay: H2O2 production by keratinocytes stimulated by lipoteichoic acid (LTA); type: cell-based, human; details: NHDK pre-treated 24 h with 1.75 to 7 μM, then LTA 10 μg/ml
Description: FIG. 18: Dose-dependent inhibition of H2O2 production by keratinocyte pre-treated by small Fg1-generated peptides and stimulated by lipoteichoic acid (LTA). NHDK cell were incubated for 24 h with recombinant peptide Fg1 (light gray bar) and Fg2 (dark gray bar) at concentrations ranging from 1.75 to 7 μM. Measurement of hydrogen peroxide production was realized by spectrofluorometry as described in Materials and Methods. Controls experiments were done with unstimulated NHDK cell (white bar) and HDF stimulated with LTA at 10 μg/ml (black bar). Data are means±S.D. of three separate experiments. Statistical significance is indicated by * (P<0.05), ** (P<0.01), *** (P<0.001), and **** (P<0.0001), respectively. […]
All cells lines (5·10^4 to 10^5 cells/well) were seeded in 96-well plates (Corning Costar, Brumath, France) and treated as previously described. After stimulation, cells were washed three times in PBS and incubated with 100 μl per wells of 5 μM DHE (for determination of O2^●−) or 5 μM H2-DCFDA (for determination of H2O2) for 30 min as described previously and fluorescence intensity was recorded every hour over a period of 5 h. Fluorescence excitation/emission maxima were for DHE: 480/610 nm and for H2-DCFDA: 507/525 nm. At the end of the experiment, the number of adherent cells was evaluated by the crystal violet assay as described below. […]

ThP1 cells = assay: IL-12 production by P. acnes-stimulated ThP1 (ELISA); type: cell-based, human; details: P. acnes 6919, set I, bacteria first pretreated, 0.87 to 7 μM
Description: For experiences of stimulation with P. acnes, cells were incubated with the P. acnes suspension adjusted at the appropriate concentration, pre-treated for 1 h at 37° C. or not with fibrinogen recombinant peptides Fg1 and Fg2 at the concentrations 0.87, 1.75, 3.5 or 7 μM for the desired period of time at 37° C. in 5% CO2.
Human IL-1ß, IL-8, IL-12, hBD-2, and TNF-α protein concentration was measured in the supernatants of stimulated cells using various ELISA Set kits (Ready-Set-Go kit from eBioscience for acne experiments, and for psoriasis experiments the Duo set IL-8 kit from R&D Systems and the BD-2 Human Development (hBD-2) from Peprotech) according to the manufacturer's instructions. We used serial dilutions of recombinant human IL-1ß, IL-8, IL-12 and TNF-α for standard curve. The optical density was determined at 450 nm at a wavelength correction of 540 nm.
To assess the efficacy of Fg1 recombinant peptide, the production of O2^∘− and H2O2 by HaCaT cells NHDK, THP-1, MRC5 and HDF stimulated by pretreated P. acnes strains 6919, RON and PIE was measured. The amount of ROS produced was compared to that produced by the stimulated cells with untreated bacteria. Production baseline was obtained by measuring ROS on unstimulated cells. The production of IL-1ß, IL-8, IL-12 and TNF-α was also measured in all conditions cited above. […]

B1: MKRMVSWSFHKLKTMKHLLLLLLCVFLVKSQGVNDNEEGFFSARGHRPLDKKREEAPSLRPAPPPISGGGYRARPAKAAATQKKVERKAPDAGGCLHADPDLGVLC (protein)
chain: MKRMVSWSFHKLKTMKHLLLLLLCVFLVKSQGVNDNEEGFFSARGHRPLDKKREEAPSLRPAPPPISGGGRARPAKAAATQKKVERKAPDAGGCLHADPDLGVLCMKRMVSWSFHKLKTMKHLLLLLLCVFLVKSQGVNDNEEGFFSARGHRPLDKKREEAPSLRPAPPPISGGGYRARPAKAAATQKKVERKAPDAGGCLHADPDLGVLC
modifications: GST fusion; fragment Fg1
notes: fragment of Bß chain of human fibrinogen having 106 amino acids; recombinant GST-fused peptide expressed in E. coli
With B1 the “Decrease of H2O2 production by LTA-stimulated cells” value (NHDK cells) was “significantly decreases production of H2O2” and the “Inhibition of Interleukine 12 (IL-12) production” value (ThP1 cells) was “pos”.
